Measurements from PMC11530598.

Assays:
[1] = target: taxol-stabilized microtubules (porcine brain tubulin) (porcine); experiment: TIRF microscopy binding assay (fluorescence intensity on filaments); fluorescent MAP1B constructs in solution on taxol-stabilized microtubules held on the coverslip; titrations for KD (KD of the LC called apparent); 10 nM on WT and subtilisin-digested microtubules in the same chamber; 90 mM Hepes pH 7.4, 150 mM K-acetate, 2 mM Mg-acetate, 1 mM EGTA, 10% glycerol, 10 uM taxol
[2] = target: tubulin (taxol-stabilized microtubules); experiment: TIRF intensity of HC on microtubules; settings: reference: HC1-1500 + DYRK1a without ATP
[3] = target: actin (filaments) (UniProt P68135); experiment: TIRF intensity of HC on actin filaments; settings: reference: HC1-1500 + DYRK1a without ATP
[4] = target: subtilisin-digested microtubules (porcine brain tubulin without the C-terminal tails) (porcine); experiment: TIRF microscopy binding assay (fluorescence intensity on filaments); fluorescent MAP1B constructs in solution on taxol-stabilized microtubules held on the coverslip; titrations for KD (KD of the LC called apparent); 10 nM on WT and subtilisin-digested microtubules in the same chamber; 90 mM Hepes pH 7.4, 150 mM K-acetate, 2 mM Mg-acetate, 1 mM EGTA, 10% glycerol, 10 uM taxol
[5] = target: taxol-stabilized microtubules (porcine brain tubulin) (porcine); experiment: TIRF microscopy binding assay (fluorescence intensity on filaments); 50 nM bacterially expressed HC^1-1500 on microtubules after incubation with DYRK1a with or without ATP (37 C, 30 min)
[6] = target: actin filaments (rabbit skeletal muscle actin) (rabbit) (UniProt P68135); experiment: TIRF microscopy binding assay (fluorescence intensity on filaments); 50 nM bacterially expressed HC^1-1500 on actin filaments after incubation with DYRK1a with or without ATP (37 C, 30 min)
[7] = target: taxol-stabilized microtubules (porcine brain tubulin) (porcine)

sfGFP-MAP1B HC^1-1103 (from UniProt P14873 1-1103) (domain or fragment)
Kd [1]: 1.1 nM

MAP1B HC^1-2202-sfGFP (full-length MAP1B heavy chain) (from UniProt P14873 1-2202) (domain or fragment)
Kd [1]: 3.8 nM

MAP1B (heavy chain HC, light chain LC/LC1) HC 1-1500 (from UniProt P14873) HC1-1500 + DYRK1a with ATP
other: percent reduction [2]: 21% | other: percent reduction [3]: 75%

sfGFP-MAP1B HC^1-1500, bacterially expressed (from UniProt P14873 1-1500) (domain or fragment)
percent decrease of fluorescence intensity against WT microtubules [4]: 45% | Kd [1]: 1.8 nM

MAP1B HC MTBD^639-767 (from UniProt P14873 639-767) (domain or fragment)
Kd [1]: 13.6 nM

sfGFP-MAP1B HC^1-532 (from UniProt P14873 1-532) (domain or fragment)
Kd [1]: 185 nM

MAP1B LC 2203-2464-sfGFP (from UniProt P14873 2203-2464) (domain or fragment)
percent decrease of fluorescence intensity against WT microtubules [4]: 87% | Kd [1]: 1.5 nM

sfGFP-MAP1B HC^1-1500, bacterially expressed, phosphorylated by DYRK1a (from UniProt P14873 1-1500) (domain or fragment)
percent reduction of fluorescence intensity on microtubules against the sample without ATP [5]: 21% | percent reduction of fluorescence intensity on actin filaments against the sample without ATP [6]: 75%

TMR-spastin (truncated human spastin, delta227) (from UniProt Q9UBP0 1-616) (enzyme)
reduction of microtubule fluorescence intensity after 10 min with spastin (severing) in the presence of 10 nM LC-sfGFP; 82% with spastin alone [7]: 19% | reduction of microtubule fluorescence intensity after 10 min with spastin (severing) in the presence of 50 nM sfGFP-HC^1-1500; 82% with spastin alone [7]: 60%
